Reference: patent publication US20240101642A1

Target: phosphopeptide-ligated β2AR with a deletion of the third intracellular loop (β2ARppΔ238-267), in HDL particles (human), P07550
Assay: cell-based or functional assay

- fold increase of agonist affinity by the transducer: 10 fold
- log IC50 of isoproterenol (ISO), competition radioligand binding, in the presence of βarr1 (no transducer: -6.91+/-0.04): -7.63 log
B1: β-arrestin1, minimal cysteine and truncated variant of rat βarr1 (βarr1-MC-393), P29066 1-393 (protein, UniProt P29066 1-393, looked up)
chain: MGDKGTRVFKKASPNGKLTVYLGKRDFVDHIDLVDPVDGVVLVDPEYLKERRVYVTLTAAFRYGREDLDVLGLTFRKDLFVANVQSFPPAPEDKKPLTRLQERLIKKLGEHAYPFTFEIPPNLPSSVTLQPGPEDTGKAIGVDYEVKAFVAENLEEKIHKRNSVRLVIRKVQYAPERPGPQPTAETTRQFLMSDKPLHLEASLDKEIYYHGEPISVNVHVTNNTNKTVKKIKISVRQYADIVLFNTAQYKVPVAMEEADDTVAPSSTFSKVYTLTPFLANNREKRGLALDGKLKHEDTNLASSTLLREGANREILGIIVSYKVKVKLVVSRGGLLGDLASSDVAVELPFTLMHPKPKEEPPHREVPESETPVDTNLIELDTNDDDIVFEDFAR
